According to patent publication US20210388087A1 (Chugai, published 2021):
Changes are numbered by the printed parent chain.

B1: GLS3000 Q90A (antibody, name in Kabat numbering, V domains shown)
VH: QVQLVESGGGVVQPGRSLRLSCAASGFTFSNAWMHWVRQAPGKGLEWVAQIKAKSNNYATYYAESVKGRFTISRDDSKNSLYLQMNSLKTEDTAVYYCRYVHYGAYYGVDAWGQGTTVTVSS
VL: DIVMTQSPLSLPVTPGEPASISCRSSQSLVHSNRNTYLHWYQQKPGQAPRLLIYKVSNRFSGVPDRFSGSGSGTDFTLKISRVEAEDVGVYYCGAGTQVPYTFGQGTKLEIK
notes: one-arm IgG as m2
B2: GLS3000 R54D (antibody, name in Kabat numbering, V domains shown)
VH: B1 VH
VL: B1 VL with R59D, A95Q
notes: one-arm IgG as m2
B3: GLS3000 S25A (antibody, name in Kabat numbering, V domains shown)
VH: B1 VH
VL: B1 VL with S25A, A95Q
notes: one-arm IgG as m2
B4: GLS3000 R29G (antibody, name in Kabat numbering, V domains shown)
VH: B1 VH
VL: B1 VL with R34G, A95Q
notes: one-arm IgG as m2
B5: GLS3000 R29T (antibody, name in Kabat numbering, V domains shown)
VH: B1 VH
VL: B1 VL with R34T, A95Q
notes: one-arm IgG as m2
B6: GLS3000 Q93P (antibody, name in Kabat numbering, V domains shown)
VH: B1 VH
VL: B1 VL with A95Q, Q98P
notes: one-arm IgG as m2
B7: GLS3000 R54E (antibody, name in Kabat numbering, V domains shown)
VH: B1 VH
VL: B1 VL with R59E, A95Q
notes: one-arm IgG as m2
B8: GLS3000 S25I (antibody, name in Kabat numbering, V domains shown)
VH: B1 VH
VL: B1 VL with S25I, A95Q
notes: one-arm IgG as m2
B9: GLS3000 R24Q (antibody, name in Kabat numbering, V domains shown)
VH: B1 VH
VL: B1 VL with R24Q, A95Q
notes: one-arm IgG as m2
B10: GLS3000 R29D (antibody, name in Kabat numbering, V domains shown)
VH: B1 VH
VL: B1 VL with R34D, A95Q
notes: one-arm IgG as m2
B11: GLS3000 R54S (antibody, name in Kabat numbering, V domains shown)
VH: B1 VH
VL: B1 VL with R59S, A95Q
notes: one-arm IgG as m2
B12: GLS3000 R29A (antibody, name in Kabat numbering, V domains shown)
VH: B1 VH
VL: B1 VL with R34A, A95Q
notes: one-arm IgG as m2
B13: GLS3000 R29Y (antibody, name in Kabat numbering, V domains shown)
VH: B1 VH
VL: B1 VL with R34Y, A95Q
notes: one-arm IgG as m2
B14: GLS3000 R29I (antibody, name in Kabat numbering, V domains shown)
VH: B1 VH
VL: B1 VL with R34I, A95Q
notes: one-arm IgG as m2
B15: GLS3000 Q90E (antibody, name in Kabat numbering, V domains shown)
VH: B1 VH
VL: B1 VL with A95E
notes: one-arm IgG as m2
B16: GLS3000 R54G (antibody, name in Kabat numbering, V domains shown)
VH: B1 VH
VL: B1 VL with R59G, A95Q
notes: one-arm IgG as m2
B17: GLS3000 Q90D (antibody, name in Kabat numbering, V domains shown)
VH: B1 VH
VL: B1 VL with A95D
notes: one-arm IgG as m2
B18: GLS3000 Q90P (antibody, name in Kabat numbering, V domains shown)
VH: B1 VH
VL: B1 VL with A95P
notes: one-arm IgG as m2
B19: GLS3000 R29L (antibody, name in Kabat numbering, V domains shown)
VH: B1 VH
VL: B1 VL with R34L, A95Q
notes: one-arm IgG as m2
B20: GLS3000 R54P (antibody, name in Kabat numbering, V domains shown)
VH: B1 VH
VL: B1 VL with R59P, A95Q
notes: one-arm IgG as m2
B21: GLS3000 R24D (antibody, name in Kabat numbering, V domains shown)
VH: B1 VH
VL: B1 VL with R24D, A95Q
notes: one-arm IgG as m2
B22: GLS3000 R54T (antibody, name in Kabat numbering, V domains shown)
VH: B1 VH
VL: B1 VL with R59T, A95Q
notes: one-arm IgG as m2
B23: GLS3000 R24E (antibody, name in Kabat numbering, V domains shown)
VH: B1 VH
VL: B1 VL with R24E, A95Q
notes: one-arm IgG as m2
B24: GLS3000 Q93Y (antibody, name in Kabat numbering, V domains shown)
VH: B1 VH
VL: B1 VL with A95Q, Q98Y
notes: one-arm IgG as m2
B25: GLS3000 Q90Y (antibody, name in Kabat numbering, V domains shown)
VH: B1 VH
VL: B1 VL with A95Y
notes: one-arm IgG as m2
B26: GLS3000 R24S (antibody, name in Kabat numbering, V domains shown)
VH: B1 VH
VL: B1 VL with R24S, A95Q
notes: one-arm IgG as m2
B27: GLS3000 Q93D (antibody, name in Kabat numbering, V domains shown)
VH: B1 VH
VL: B1 VL with A95Q, Q98D
notes: one-arm IgG as m2
B28: GLS3000 R54Q (antibody, name in Kabat numbering, V domains shown)
VH: B1 VH
VL: B1 VL with R59Q, A95Q
notes: one-arm IgG as m2
B29: GLS3000 S25D (antibody, name in Kabat numbering, V domains shown)
VH: B1 VH
VL: B1 VL with S25D, A95Q
notes: one-arm IgG as m2
B30: GLS3000 Q93E (antibody, name in Kabat numbering, V domains shown)
VH: B1 VH
VL: B1 VL with A95Q, Q98E
notes: one-arm IgG as m2
B31: GLS3000 R24P (antibody, name in Kabat numbering, V domains shown)
VH: B1 VH
VL: B1 VL with R24P, A95Q
notes: one-arm IgG as m2
B32: GLS3000 R24A (antibody, name in Kabat numbering, V domains shown)
VH: B1 VH
VL: B1 VL with R24A, A95Q
notes: one-arm IgG as m2
B33: GLS3000 R54W (antibody, name in Kabat numbering, V domains shown)
VH: B1 VH
VL: B1 VL with R59W, A95Q
notes: one-arm IgG as m2
B34: GLS3000 R54A (antibody, name in Kabat numbering, V domains shown)
VH: B1 VH
VL: B1 VL with R59A, A95Q
notes: one-arm IgG as m2
B35: GLS3000 Q93R (antibody, name in Kabat numbering, V domains shown)
VH: B1 VH
VL: B1 VL with A95Q, Q98R
notes: one-arm IgG as m2
B36: GLS3000 R29P (antibody, name in Kabat numbering, V domains shown)
VH: B1 VH
VL: B1 VL with R34P, A95Q
notes: one-arm IgG as m2
B37: GLS3000 R29S (antibody, name in Kabat numbering, V domains shown)
VH: B1 VH
VL: B1 VL with R34S, A95Q
notes: one-arm IgG as m2
B38: GLS3000 R24T (antibody, name in Kabat numbering, V domains shown)
VH: B1 VH
VL: B1 VL with R24T, A95Q
notes: one-arm IgG as m2
B39: GLS3000 R24Y (antibody, name in Kabat numbering, V domains shown)
VH: B1 VH
VL: B1 VL with R24Y, A95Q
notes: one-arm IgG as m2
B40: GLS3000 R77S (antibody, name in Kabat numbering, V domains shown)
VH: B1 VH
VL: B1 VL with R82S, A95Q
notes: one-arm IgG as m2
B41: GLS3000 Q93S (antibody, name in Kabat numbering, V domains shown)
VH: B1 VH
VL: B1 VL with A95Q, Q98S
notes: one-arm IgG as m2
B42: GLS3000 R29V (antibody, name in Kabat numbering, V domains shown)
VH: B1 VH
VL: B1 VL with R34V, A95Q
notes: one-arm IgG as m2
B43: GLS3000 R24G (antibody, name in Kabat numbering, V domains shown)
VH: B1 VH
VL: B1 VL with R24G, A95Q
notes: one-arm IgG as m2
B44: GLS3000 Q90S (antibody, name in Kabat numbering, V domains shown)
VH: B1 VH
VL: B1 VL with A95S
notes: one-arm IgG as m2
B45: GLS3000 Q93A (antibody, name in Kabat numbering, V domains shown)
VH: B1 VH
VL: B1 VL with A95Q, Q98A
notes: one-arm IgG as m2
B46: GLS3000 S25E (antibody, name in Kabat numbering, V domains shown)
VH: B1 VH
VL: B1 VL with S25E, A95Q
notes: one-arm IgG as m2

Molecular target: T1, CD3 epsilon homodimer protein (UniProt P07766 23-126)
T1 construct: also called CD3 (CD3 epsilon)
Assay: SPR Biacore T200, CD3e homodimer on chip, vs unaltered GLS3000 antibody

T1 sequence (P07766 23-126): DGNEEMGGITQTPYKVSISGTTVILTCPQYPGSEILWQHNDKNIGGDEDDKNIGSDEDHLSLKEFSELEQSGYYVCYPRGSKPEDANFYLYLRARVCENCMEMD

First: B1
Second: B2
The “ratio of amounts bound (Z=Y/X)” value of the first is higher: 0.5 for the first, 0.36 for the second.

Going from B3 to B4, the “ratio of amounts bound (Z=Y/X)” value falls from 0.92 to 0.67.

Compared with B5, B6 is lower in “ratio of amounts bound (Z=Y/X)” value: 0.63 for the first, 0.25 for the second.

Going from B7 to B8, the “ratio of amounts bound (Z=Y/X)” value falls from 0.58 to 0.53.

First: B9
Second: B10
The “ratio of amounts bound (Z=Y/X)” value of the first is higher: 0.9 for the first, 0.41 for the second.

Compared with B11, B12 is lower in “ratio of amounts bound (Z=Y/X)” value: 0.79 for the first, 0.63 for the second.

First: B13
Second: B14
The “ratio of amounts bound (Z=Y/X)” value of the first is higher: 0.69 for the first, 0.37 for the second.

Going from B15 to B16, the “ratio of amounts bound (Z=Y/X)” value falls from 0.86 to 0.67.

Compared with B17, B18 is higher in “ratio of amounts bound (Z=Y/X)” value: 0.19 for the first, 0.27 for the second.

Going from B19 to B20, the “ratio of amounts bound (Z=Y/X)” value rises from 0.56 to 0.84.

Going from B21 to B22, the “ratio of amounts bound (Z=Y/X)” value falls from 0.75 to 0.65.

Going from B23 to B24, the “ratio of amounts bound (Z=Y/X)” value rises from 0.83 to 0.87.

Compared with B25, B26 is higher in “ratio of amounts bound (Z=Y/X)” value: 0.17 for the first, 0.89 for the second.

Compared with B27, B28 is lower in “ratio of amounts bound (Z=Y/X)” value: 0.72 for the first, 0.68 for the second.

First: B29
Second: B30
The “ratio of amounts bound (Z=Y/X)” value of the first is lower: 0.18 for the first, 0.75 for the second.

Compared with B31, B32 is higher in “ratio of amounts bound (Z=Y/X)” value: 0.7 for the first, 0.86 for the second.

Compared with B33, B34 is lower in “ratio of amounts bound (Z=Y/X)” value: 0.78 for the first, 0.69 for the second.

Compared with B35, B36 is lower in “ratio of amounts bound (Z=Y/X)” value: 1.13 for the first, 0.31 for the second.

Compared with B37, B38 is higher in “ratio of amounts bound (Z=Y/X)” value: 0.68 for the first, 0.88 for the second.

First: B39
Second: B40
The “ratio of amounts bound (Z=Y/X)” value of the first is lower: 0.87 for the first, 0.92 for the second.

Going from B41 to B42, the “ratio of amounts bound (Z=Y/X)” value falls from 0.96 to 0.34.

Compared with B43, B44 is lower in “ratio of amounts bound (Z=Y/X)” value: 0.89 for the first, 0.73 for the second.

Going from B45 to B46, the “ratio of amounts bound (Z=Y/X)” value falls from 0.85 to 0.21.
